Data taken from patent US20230265151A1, “GIP/GLP1 CO-AGONIST COMPOUNDS” (priority 2020, published 2023).
Where a chain is given by its changes, count along the chain named. *1 amine or outer side, *2 acyl side, *3 side chain or, on linkers, in order; H or OH if unused. Where no end group is shown, it is not given here. Side-chain parts run from the residue outwards. [ ]: non-standard residue; d: D form. The star is where a group is joined. Undecanoyl(11-OPh(4-COOH)) = O=C(O)c1ccc(OCCCCCCCCCCC(=O)*)cc1; Decanoyl(10-(4-HOOC-PhO)) = O=C(O)c1ccc(OCCCCCCCCCC(=O)*)cc1; αMePhe(2-F) = C[C@](N)(Cc1ccccc1F)C(=O)O; γGlu = O=C(O)[C@H](CCC(=O)[*:2])N[*:1]; C14 diacid = O=C(O)CCCCCCCCCCCCC(=O)*; αMeY = C[C@](N)(Cc1ccc(O)cc1)C(=O)O; αMeL = CC(C)C[C@](C)(N)C(=O)O; αMeS = C[C@](N)(CO)C(=O)O; Orn = NCCC[C@H](N)C(=O)O; AEEA = NCCOCCOCC(=O)O; Aib = CC(C)(N)C(=O)O

Experiments:
Assay in all cases: cell-based or functional assay
human GLP-1 receptor [1] = target: human GLP-1 receptor (human, UniProt P43220 24-463)
human GIP receptor [2] = target: T1, human GIP receptor (human, UniProt P48546 22-466)
T1 sequence (looked up): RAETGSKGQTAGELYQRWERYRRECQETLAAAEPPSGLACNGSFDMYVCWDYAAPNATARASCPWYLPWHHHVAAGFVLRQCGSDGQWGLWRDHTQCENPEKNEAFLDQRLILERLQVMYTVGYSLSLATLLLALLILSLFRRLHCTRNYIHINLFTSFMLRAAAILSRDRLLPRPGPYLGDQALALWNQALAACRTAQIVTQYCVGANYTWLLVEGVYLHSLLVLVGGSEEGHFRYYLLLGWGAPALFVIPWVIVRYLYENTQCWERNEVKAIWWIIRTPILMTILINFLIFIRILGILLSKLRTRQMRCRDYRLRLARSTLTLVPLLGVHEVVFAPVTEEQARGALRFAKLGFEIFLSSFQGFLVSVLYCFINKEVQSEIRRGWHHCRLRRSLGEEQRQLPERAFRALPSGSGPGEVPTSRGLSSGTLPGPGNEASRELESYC

human GIP receptor [3] = target: T2, human GIP receptor (human, UniProt P48546 22-466); remark: listed apart in the source
T2 sequence (looked up): T1 sequence (looked up)

human GLP-1 receptor [4] = target: human GLP-1 receptor (human, UniProt P43220 24-463); remark: listed apart in the source
human glucagon receptor = human glucagon receptor (human, UniProt P47871 26-477)
human GIP receptor [5] = target: T3, human GIP receptor (human, UniProt P48546 22-466); remark: listed apart in the source
T3 sequence (looked up): T1 sequence (looked up)

B1: Example 313 (peptide)
peptide: Y[Aib]EGT[αMePhe(2-F)]TSDV[Aib]I[αMeL]LD[Orn]IAQ[Aib]EFIK([AEEA-AEEA-γGlu-Undecanoyl(11-OPh(4-COOH))])[αMeY]LIK([AEEA-AEEA-γGlu-Undecanoyl(11-OPh(4-COOH))])GGPSSGAPPPS-NH2
Human GLP-1 receptor [1]
  cAMP EC50 (1.0% HSA): 98.8 nM
Human GIP receptor [2]
  cAMP EC50 (1.0% HSA): 21.9 nM

B2: Example 308 (peptide)
peptide: Y[Aib]EGT[αMePhe(2-F)]TSDV[Aib]I[αMeL]LD[Orn]IAQ[Aib]EFIK([AEEA-AEEA-γGlu-Decanoyl(10-(4-HOOC-PhO))])[αMeY]LIK([AEEA-AEEA-γGlu-Decanoyl(10-(4-HOOC-PhO))])GGPSSGAPPPS-NH2
Human GLP-1 receptor [1]
  cAMP EC50 (1.0% HSA): 67.3 nM
Human GIP receptor [2]
  cAMP EC50 (1.0% HSA): 10.5 nM

B3: Example 347 (peptide)
peptide: Y[Aib]EGT[αMePhe(2-F)]TSDV[Aib]I[αMeL]LD[Orn]IAQ[Aib]EFIK([AEEA-AEEA-AEEA-γGlu-Decanoyl(10-(4-HOOC-PhO))])[αMeY]LIK([AEEA-AEEA-AEEA-γGlu-Decanoyl(10-(4-HOOC-PhO))])GGPSSGAPPPS-NH2
Human GLP-1 receptor [1]
  cAMP EC50 (1.0% HSA): 51.7 nM
Human GIP receptor [2]
  cAMP EC50 (1.0% HSA): 7.27 nM
  cAMP Emax (1.0% HSA): 84.6%

B4: Example 381 (peptide)
peptide: Y[Aib]EGT[αMePhe(2-F)]TSDV[Aib]I[αMeL]LD[Orn]IAQ[Aib]EFIK([AEEA-γGlu-Decanoyl(10-(4-HOOC-PhO))])[αMeY]LIK([AEEA-γGlu-Decanoyl(10-(4-HOOC-PhO))])GGPSSGAPPPS-NH2
Human GIP receptor [3]
  cAMP EC50 (1.0% HSA): 28 nM
Human GLP-1 receptor [4]
  cAMP EC50 (1.0% HSA): 153 nM

B5: Example 309 (peptide)
peptide: Y[Aib]EGT[αMePhe(2-F)]TSDV[αMeS]I[αMeL]LD[Orn]IAQ[Aib]EFIK([AEEA-AEEA-γGlu-Decanoyl(10-(4-HOOC-PhO))])[αMeY]LIK([AEEA-AEEA-γGlu-Decanoyl(10-(4-HOOC-PhO))])GGPSSGAPPPS-NH2
Human GLP-1 receptor [1]
  cAMP EC50 (1.0% HSA): 64.6 nM
Human GIP receptor [2]
  cAMP EC50 (1.0% HSA): 6.08 nM

B6: Example 31 (peptide)
peptide: YXEGTXTSDXSIXLDXKAQXEFIXXLIEGGKSSGAPPPS
modifications: Aib2, αMeF(2F)6, 4Pal10, αMeL13, Orn16, Aib20, D-Glu24, αMeY25, K17 and K31: K(AEEA3-(γ-Glu)-CO-(CH2)14-CH3), C-terminal NH2
Human glucagon receptor
  EC50, cAMP: > 9950 nM
Human GIP receptor [5]
  EC50, cAMP: 0.00157 nM

B7: Example 10 (peptide)
peptide: B6 peptide
modifications: Aib2, αMeF(2F)6, 4Pal10, αMeL13, Orn16, Aib20, D-Glu24, αMeY25, K17 and K31: K(AEEA2-(10-(4-carboxyphenoxy)decanoyl)), C-terminal NH2
Human glucagon receptor
  EC50, cAMP: > 9950 nM
Human GIP receptor [5]
  EC50, cAMP: 0.0106 nM

B8: Example 344 (peptide)
peptide: Y[Aib]EGT[αMePhe(2-F)]TSDV[Aib]I[αMeL]LD[Orn]IAQ[Aib]EFIK([AEEA-AEEA-AEEA-γGlu-C14 diacid])[αMeY]LIK([AEEA-AEEA-AEEA-γGlu-C14 diacid])GGPSSGAPPPS-NH2
modifications: N-terminus assumed
SMILES: CC[C@H](C)[C@H](NC(=O)[C@H](CCCN)NC(=O)[C@H](CC(=O)O)NC(=O)[C@H](CC(C)C)NC(=O)[C@](C)(CC(C)C)NC(=O)[C@@H](NC(=O)C(C)(C)NC(=O)[C@@H](NC(=O)[C@H](CC(=O)O)NC(=O)[C@H](CO)NC(=O)[C@@H](NC(=O)[C@](C)(Cc1ccccc1F)NC(=O)[C@@H](NC(=O)CNC(=O)[C@H](CCC(=O)O)NC(=O)C(C)(C)NC(=O)[C@@H](N)Cc1ccc(O)cc1)[C@@H](C)O)[C@@H](C)O)C(C)C)[C@@H](C)CC)C(=O)N[C@@H](C)C(=O)N[C@@H](CCC(N)=O)C(=O)NC(C)(C)C(=O)N[C@@H](CCC(=O)O)C(=O)N[C@@H](Cc1ccccc1)C(=O)N[C@H](C(=O)N[C@@H](CCCCNC(=O)COCCOCCNC(=O)COCCOCCNC(=O)COCCOCCNC(=O)CC[C@H](NC(=O)CCCCCCCCCCCCC(=O)O)C(=O)O)C(=O)N[C@@](C)(Cc1ccc(O)cc1)C(=O)N[C@@H](CC(C)C)C(=O)N[C@H](C(=O)N[C@@H](CCCCNC(=O)COCCOCCNC(=O)COCCOCCNC(=O)COCCOCCNC(=O)CC[C@H](NC(=O)CCCCCCCCCCCCC(=O)O)C(=O)O)C(=O)NCC(=O)NCC(=O)N1CCC[C@H]1C(=O)N[C@@H](CO)C(=O)N[C@@H](CO)C(=O)NCC(=O)N[C@@H](C)C(=O)N1CCC[C@H]1C(=O)N1CCC[C@H]1C(=O)N1CCC[C@H]1C(=O)N[C@@H](CO)C(N)=O)[C@@H](C)CC)[C@@H](C)CC
Human GLP-1 receptor [1]
  cAMP EC50 (1.0% HSA): 48.3 nM
Human GIP receptor [2]
  cAMP EC50 (1.0% HSA): 6.78 nM
  cAMP Emax (1.0% HSA): 87.3%

B9: Example 339 (peptide)
peptide: YXEGTXTSDXXIXLDXIAQXEFIKXLIKGGPSSGAPPPS
modifications: Y-Aib-EGT-αMeF(2F)-TSD-4Pal-Aib-I-αMeL-LD-Orn-IAQ-Aib-EFIK((2-[2-(2-Amino-ethoxy)-ethoxy]-acetyl)-(γ-Glu)-CO-(CH2)12-CO2H)-αMeY-LIK((2-[2-(2-Amino-ethoxy)-ethoxy]-acetyl)-(γ-Glu)-CO-(CH2)12-CO2H)GGPSSGAPPPS-NH2
Human GLP-1 receptor [1]
  cAMP EC50 (1.0% HSA): 68.2 nM
  cAMP Emax (1.0% HSA): 115%
Human GIP receptor [2]
  cAMP EC50 (1.0% HSA): 4.35 nM

B10: Example 464 (peptide)
peptide: B9 peptide with I17Q
modifications: Y-Aib-EGT-αMeF(2F)-TSD-4Pal-Aib-I-αMeL-LD-Orn-QAQ-Aib-EFIK(2-[2-(2-Amino-ethoxy)-ethoxy]-acetyl)3-(γ-Glu)-(10-(4-carboxyphenoxy)decanoyl)-αMeY-LIK((2-[2-(2-Amino-ethoxy)-ethoxy]-acetyl)3-(γ-Glu)-(10-(4-carboxyphenoxy)decanoyl)GGPSSGAPPPS-NH2)
Human GIP receptor [3]
  cAMP EC50 (1.0% HSA): 0.316 nM
  cAMP Emax (1.0% HSA): 95.5%
Human GLP-1 receptor [4]
  cAMP EC50 (1.0% HSA): 4.48 nM

B11: Example 460 (peptide)
peptide: B9 peptide with I17Q
modifications: Y-Aib-EGT-αMeF(2F)-TSD-4Pal-Aib-I-αMeL-LD-Orn-QAQ-Aib-EFIK((2-[2-(2-Amino-ethoxy)-ethoxy]-acetyl)3-(γ-Glu)-CO-(CH2)12-CO2H)-αMeY-LIK((2-[2-(2-Amino-ethoxy)-ethoxy]-acetyl)3-(γ-Glu)-CO-(CH2)12-CO2H)GGPSSGAPPPS-NH2
Human GIP receptor [3]
  cAMP EC50 (1.0% HSA): 0.506 nM
Human GLP-1 receptor [4]
  cAMP EC50 (1.0% HSA): 6.31 nM

B12: Example 411 (peptide)
peptide: B9 peptide with I17Q
modifications: Y-Aib-EGT-αMeF(2F)-TSD-4Pal-Aib-I-αMeL-LD-Orn-QAQ-Aib-EFIK((2-[2-(2-Amino-ethoxy)-ethoxy]-acetyl)2-(γ-Glu)-CO-(CH2)12-CO2H)-αMeY-LIK((2-[2-(2-Amino-ethoxy)-ethoxy]-acetyl)2-(γ-Glu)-CO-(CH2)12-CO2H)GGPSSGAPPPS-NH2
Human GIP receptor [3]
  cAMP EC50 (1.0% HSA): 1.09 nM
Human GLP-1 receptor [4]
  cAMP EC50 (1.0% HSA): 11.4 nM

B13: Example 403 (peptide)
peptide: B9 peptide with I17Q
modifications: Y-Aib-EGT-αMeF(2F)-TSD-4Pal-Aib-I-αMeL-LD-Orn-QAQ-Aib-EFIK((2-[2-(2-Amino-ethoxy)-ethoxy]-acetyl)2-(γ-Glu)-(10-(4-carboxyphenoxy)decanoyl))-αMeY-LIK((2-[2-(2-Amino-ethoxy)-ethoxy]-acetyl)2-(γ-Glu)-(10-(4-carboxyphenoxy)decanoyl))GGPSSGAPPPS-NH2
Human GIP receptor [3]
  cAMP EC50 (1.0% HSA): 0.711 nM
  cAMP Emax (1.0% HSA): 91.7%
Human GLP-1 receptor [4]
  cAMP EC50 (1.0% HSA): 7.31 nM

B14: Example 400 (peptide)
peptide: Y[Aib]EGT[αMePhe(2-F)]TSDV[Aib]I[αMeL]LD[Orn]IAQ[Aib]EFIK([AEEA-γGlu-C14 diacid])[αMeY]LIK([AEEA-γGlu-C14 diacid])GGPSSGAPPPS-NH2
modifications: N-terminus assumed
SMILES: CC[C@H](C)[C@H](NC(=O)[C@H](CCCN)NC(=O)[C@H](CC(=O)O)NC(=O)[C@H](CC(C)C)NC(=O)[C@](C)(CC(C)C)NC(=O)[C@@H](NC(=O)C(C)(C)NC(=O)[C@@H](NC(=O)[C@H](CC(=O)O)NC(=O)[C@H](CO)NC(=O)[C@@H](NC(=O)[C@](C)(Cc1ccccc1F)NC(=O)[C@@H](NC(=O)CNC(=O)[C@H](CCC(=O)O)NC(=O)C(C)(C)NC(=O)[C@@H](N)Cc1ccc(O)cc1)[C@@H](C)O)[C@@H](C)O)C(C)C)[C@@H](C)CC)C(=O)N[C@@H](C)C(=O)N[C@@H](CCC(N)=O)C(=O)NC(C)(C)C(=O)N[C@@H](CCC(=O)O)C(=O)N[C@@H](Cc1ccccc1)C(=O)N[C@H](C(=O)N[C@@H](CCCCNC(=O)COCCOCCNC(=O)CC[C@H](NC(=O)CCCCCCCCCCCCC(=O)O)C(=O)O)C(=O)N[C@@](C)(Cc1ccc(O)cc1)C(=O)N[C@@H](CC(C)C)C(=O)N[C@H](C(=O)N[C@@H](CCCCNC(=O)COCCOCCNC(=O)CC[C@H](NC(=O)CCCCCCCCCCCCC(=O)O)C(=O)O)C(=O)NCC(=O)NCC(=O)N1CCC[C@H]1C(=O)N[C@@H](CO)C(=O)N[C@@H](CO)C(=O)NCC(=O)N[C@@H](C)C(=O)N1CCC[C@H]1C(=O)N1CCC[C@H]1C(=O)N1CCC[C@H]1C(=O)N[C@@H](CO)C(N)=O)[C@@H](C)CC)[C@@H](C)CC
Human GIP receptor [3]
  cAMP EC50 (1.0% HSA): 16.7 nM
Human GLP-1 receptor [4]
  cAMP EC50 (1.0% HSA): 107 nM
